{"source": "patent US20060026702A1", "about": "“Phosphoinositide 3-kinase mediated inhibition of GPCRs” (DUKE UNIVERSITY, priority 2002, published 2006)", "molecules": {"B1": {"name": "HEAT: 197 amino acid HEAT domain of PI3Kγ, FLAG epitope-tagged (SEQ ID NO: 2), overexpressed in cells (protein, listed as Homo sapiens)", "chain": "MDYKDDDDKHPIALPKHQPTPDDRVRAEMPNQLRKQLEAIIATDTAEDKELLWHFRYESLKHPKAYPKLFSSVKWGQQEIVAKTYQLLARREVWDQSALDVGLTMQLLDCNFSDENVRAIAVQKLESLEDDDVLHYLLQLVQAVKFEPYHDSALARFLLKRGLRNKRIGHFLFWFLRSEIAQSRHYQQRFAVILEAYLRGCGTA", "modifications": "FLAG tag"}}, "key": {"βARK1 [1]": {"target": "T1, βARK1 (Bos taurus, UniProt P21146)", "T1 construct": "gift from Dr. Robert Lefkowitz", "T1 sequence (P21146 1-689)": "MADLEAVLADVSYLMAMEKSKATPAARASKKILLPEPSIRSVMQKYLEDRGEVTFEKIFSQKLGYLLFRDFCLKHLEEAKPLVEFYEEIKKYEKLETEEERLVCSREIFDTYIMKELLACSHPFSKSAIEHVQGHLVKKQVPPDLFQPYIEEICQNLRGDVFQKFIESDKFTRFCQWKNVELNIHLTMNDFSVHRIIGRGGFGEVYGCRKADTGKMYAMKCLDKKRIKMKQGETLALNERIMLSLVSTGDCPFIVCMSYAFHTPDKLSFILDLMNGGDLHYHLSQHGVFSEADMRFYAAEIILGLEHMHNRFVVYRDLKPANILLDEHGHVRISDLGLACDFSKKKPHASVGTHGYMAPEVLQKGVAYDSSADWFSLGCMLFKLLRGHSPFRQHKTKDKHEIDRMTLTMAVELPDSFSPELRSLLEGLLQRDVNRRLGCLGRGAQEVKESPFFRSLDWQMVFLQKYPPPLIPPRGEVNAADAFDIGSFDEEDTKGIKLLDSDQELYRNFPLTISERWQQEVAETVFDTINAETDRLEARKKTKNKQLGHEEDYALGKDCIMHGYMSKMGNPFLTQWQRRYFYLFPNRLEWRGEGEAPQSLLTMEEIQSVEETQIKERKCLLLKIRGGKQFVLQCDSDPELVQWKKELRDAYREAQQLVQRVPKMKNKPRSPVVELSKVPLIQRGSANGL", "assay": "Co-immunoprecipitation and GST pull-down with purified βARK1", "type": "binding", "conditions": "immunoprecipitated FLAG-HEAT or PI3KΔHEAT-HA", "protocol": "GST Fusion Protein Expression and Pull-down Experiments—Plasmid DNAs were transformed in Escherichia coli BL21 cells. Overnight cultures were grown in LB medium supplemented with ampicillin (100 μg/ml), diluted to an A600 of 0.2 in the same medium and grown for another 1 hr at 37° C. Cultured cells were then induced with 0.1 mM isopropyl-1-thio-β-D-galactopyranoside for 2 hr. Cell were then pelleted, washed once with 1× phosphate-buffered saline and resuspended in 1× phosphate-buffered saline containing 1 mM phenylmethylsulfonyl fluoride, 2 mg/ml lysozyme and incubated for 15 min on ice. Cells were lysed by adding Triton X-100 1%. Solublized cells were incubated with DNase (300 units) for 15 min on ice and centrifuged at 13,000 rpm for 10 min.\nGlutathione-Sepharose beads were added to the supernatant and gently agitated at 4° C. for 2 hr. Beads were washed three times with ice cold 1×PBS containing 1% Triton X-100 followed by three washes with cold PBS without detergent. Protein concentration was determined using a DC protein assay kit (Bio Rad), and the integrity of the fusion protein was analyzed by SDS-polyacrylamide gel electrophoresis and Coomassie staining.\nThe beads were spun and washed three times with binding buffer followed by three washes with binding buffer without detergent. The beads were resuspended in SDS gel loading buffer and resolved by gel electrophoresis, immunblotting and detection was carried out described later.\nFLAG-HEAT and PI3KΔHEAT proteins were immunoprecipitated from cell extracts using monoclonal FLAG and HA antibodies respectively, fractionated by SDS-PAGE and analyzed by immunoblotting with βARK1 monoclonal antibody. […] Levels of expression of HEAT and PI3KΔHEAT proteins were similar (FIG. 8B, lower panel).\nTo investigate whether there was a direct physical interaction between the HEAT domain of PI3K and βARK1, GST-HEAT fusion protein containing 535-732 amino acid residues of PI3Kγ was produced, which including the entire HEAT domain and flanking upstream 10 amino acids and downstream 7 amino acids. […]"}, "βARK1 [2]": {"tested_on": "βARK1", "assay": "βARK1 recruitment to the membrane (immunoblot of membrane fraction)", "type": "cell-based", "conditions": "10 μM isoproterenol; HEAT 4 μg", "protocol": "Cytosolic and Membrane Fractionation—Cell monolayers were scraped in 1 ml of buffer containing 25 mM Tris-HCl (pH 7.5), 5 mM EDTA, 5 mM EGTA, 1 mM phenylmethylsulfonyl fluoride, 2 μg/ml each of leupeptin and aprotinin and disrupted further by using Dounce homogenizer. Intact cells and nuclei were removed by-centrifugation at 1,000×g for 5 min. The collected supernatant was further subject to a centrifugation at 38,000×g for 25 min. The pellet was resuspended in lysis buffer (1% Nonidet P-40, 10% glycerol, 137 mM NaCl, 20 mM Tris-Cl (ph 7.4), 1 mM phenylmethylsulfonyl fluoride, 20 mM NaF, 1 mM sodium pyrophosphate, 1 mM sodium orthovanadate and 2 μg/ml each of aprotinin and leupeptin) and used as membrane fraction and the supernatant was diluted in lysis buffer and used as the cytosolic fraction. Heart samples also underwent through similar procedures to obtain membrane and cytosolic fractions. Purity of the membrane fraction preparation was confirmed by measuring enzyme activity of the membrane marker enzyme K^+-stimulated p-nitrophenylphosphatase (membrane fraction: 9.4 μmol/mg protein per min, cytosol: 2.6 μmol/mg of protein/min). […]\nCytosolic and membrane fractions were prepared and analyzed for βARK1 associated PI3K activity. […]"}}, "data": [{"molecule": "B1", "values": [{"measurement": "association with purified βARK1 (immune complexes from HEK 293 extracts)", "setting": "βARK1 [1]", "value": "found to associate"}, {"measurement": "membrane recruitment of βARK1 following isoproterenol", "setting": "βARK1 [2]", "value": "no effect"}]}]}
